T1: UHRF1 SRA domain (human, UniProt Q96T88 408-643)
T1 sequence: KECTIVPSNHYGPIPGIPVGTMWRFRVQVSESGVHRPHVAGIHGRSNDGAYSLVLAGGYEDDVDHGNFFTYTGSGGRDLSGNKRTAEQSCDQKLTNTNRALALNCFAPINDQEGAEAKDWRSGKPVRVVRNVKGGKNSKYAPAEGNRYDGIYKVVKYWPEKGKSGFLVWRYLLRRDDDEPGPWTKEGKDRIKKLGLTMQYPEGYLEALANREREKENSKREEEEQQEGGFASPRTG

B1: HM duplex, unlabelled (dsDNA)
DNA 1: GGGCCCGCAGGG
DNA 2: CCCTGCGGGCCC
modifications: 5mC at position 6 of strand 1
B2: NM duplex, unlabelled (dsDNA)
DNA 1: GGGCCCGCAGGG
DNA 2: CCCTGCGGGCCC

Columns and labels:
UHRF1 SRA domain [1] = target: T1, UHRF1 SRA domain; assay: intrinsic Trp fluorescence titration; 1 uM SRA; 20 mM PBS pH 7.5, 50 mM NaCl, 2.5 mM TCEP, 0.05% PEG 20000, 20 C; duplex 1 uM in anisotropy; details: protein: recombinant; 12 bp duplex
UHRF1 SRA domain [2] = target: T1, UHRF1 SRA domain; assay: as above; details: protein: recombinant; 12 bp duplex; remark: listed apart in the source

Binder	Ka (UHRF1 SRA domain [1])	Ka (UHRF1 SRA domain [2])
B1	8.1 ± 0.2 10^6 M-1	
B2		1.43 ± 0.07 10^6 M-1

Reference: paper PMC12448856, “Decoding the base flipping mechanism of the SET- and RING-associated (SRA) domain of the epigenetic UHRF1 protein”
